Assay results taken from publication PMC7368380 (Journal of the American Chemical Society, 2018).

Tests used:
[1] = molecular target: fluorescein-labeled, wild-type FusA leader peptide (Thermobifida fusca); assay: fluorescence polarisation
carboxypeptidase Y = molecular target: T1, carboxypeptidase Y (Saccharomyces cerevisiae, UniProt P00729); assay: carboxypeptidase Y digestion; format: in vitro ADME; details: carboxypeptidase Y digestion for 18 h; analysis by MS (Fig. S11)
T1 sequence (P00729 112-532): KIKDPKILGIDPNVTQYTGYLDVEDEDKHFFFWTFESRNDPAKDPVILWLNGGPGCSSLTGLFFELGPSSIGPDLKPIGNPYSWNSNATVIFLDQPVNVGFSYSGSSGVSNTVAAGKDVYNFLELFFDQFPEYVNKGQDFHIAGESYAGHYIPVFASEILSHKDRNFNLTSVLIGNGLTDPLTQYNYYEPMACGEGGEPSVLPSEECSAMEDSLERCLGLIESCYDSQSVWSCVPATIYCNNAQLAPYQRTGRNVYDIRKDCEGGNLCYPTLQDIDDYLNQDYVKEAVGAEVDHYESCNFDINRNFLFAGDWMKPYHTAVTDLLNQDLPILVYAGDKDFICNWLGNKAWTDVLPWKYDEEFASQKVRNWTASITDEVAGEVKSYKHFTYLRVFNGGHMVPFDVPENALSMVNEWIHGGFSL

[2] = MALDI-TOF MS-based hydrogen-deuterium exchange assay; format: physicochemical; details: H-D exchange, MALDI-TOF MS read-out (Fig. S10)
solubility = format: physicochemical; details: qualitative statement; prevented NMR

## FusE-D74A (natural protein)
[1]
  fold reduction of affinity against wild-type FusE: 8 fold

## fusilassin
Carboxypeptidase Y
  outcome of carboxypeptidase Y digestion: vast majority of the fusilassin peptide remained intact
[2]
  time to full deuteration: ~ 60 min
solubility
  solubility characteristics: poor

## FusE G31V variant (natural protein)
[1]
  fold reduction of leader peptide binding against wild-type FusE: 2 fold

## FusE-L78A (natural protein)
[1]
  fold reduction of affinity against wild-type FusE: 10 fold
